Measurements: paper PMC3434800
Where a chain is given by its changes, count along the chain named.

Experiments:
Hel308 K52A = molecular target: T1, Hel308 K52A (Sulfolobus solfataricus PBL2025, UniProt D0KN27 8-715, K59A); test: fluorescence anisotropy
T1 sequence: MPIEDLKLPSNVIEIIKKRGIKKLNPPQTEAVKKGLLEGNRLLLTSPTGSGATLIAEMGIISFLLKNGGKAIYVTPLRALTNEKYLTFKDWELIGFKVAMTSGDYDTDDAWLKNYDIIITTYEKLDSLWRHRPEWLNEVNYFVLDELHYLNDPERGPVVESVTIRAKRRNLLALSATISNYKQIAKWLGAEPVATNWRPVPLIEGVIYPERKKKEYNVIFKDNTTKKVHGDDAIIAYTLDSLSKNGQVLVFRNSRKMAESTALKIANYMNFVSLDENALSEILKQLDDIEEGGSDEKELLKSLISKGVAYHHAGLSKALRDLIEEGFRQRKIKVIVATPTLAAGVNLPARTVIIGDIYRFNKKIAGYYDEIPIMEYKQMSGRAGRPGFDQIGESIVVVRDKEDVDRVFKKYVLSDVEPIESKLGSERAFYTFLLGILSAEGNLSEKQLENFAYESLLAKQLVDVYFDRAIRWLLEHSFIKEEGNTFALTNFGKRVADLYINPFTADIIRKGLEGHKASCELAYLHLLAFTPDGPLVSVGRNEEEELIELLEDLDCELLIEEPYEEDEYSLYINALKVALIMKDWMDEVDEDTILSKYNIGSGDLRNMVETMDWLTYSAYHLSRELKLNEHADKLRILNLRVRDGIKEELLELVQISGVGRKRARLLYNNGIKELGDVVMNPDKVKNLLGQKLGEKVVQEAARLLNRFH

[1] = molecular target: T2, Hel308 (ssHel308) wild type (Sulfolobus solfataricus PBL2025, UniProt D0KN27 8-715); test: fluorescence anisotropy
T2 sequence: T1 sequence with A52K

Hel308 R255A = molecular target: T3, Hel308 R255A (Sulfolobus solfataricus PBL2025, UniProt D0KN27 8-715, R262A); test: fluorescence anisotropy
T3 sequence: T1 sequence with A52K, R255A

Hel308 R662A = molecular target: T4, Hel308 R662A (Sulfolobus solfataricus PBL2025, UniProt D0KN27 8-715, R669A); test: fluorescence anisotropy
T4 sequence: T1 sequence with A52K, R662A

[2] = molecular target: T2, Hel308 (ssHel308) wild type; test: competition

For TTTTTTTTTTTTTTT (ssDNA) [15T ssDNA, 5'-fluorescein], the binding result (Hel308 K52A) was “binds”, the Kd [1] was 140 nM and the binding signal (Hel308 R255A) was 25 fold increase in Kd vs wild type. TTTTTTTTTTTTTTT (ssDNA) [15T ssDNA, 5'-fluorescein]: binds (Hel308 R662A).

In the case of TTTTTTTTTTTTTTT (ssDNA) [15T ssDNA, unlabelled competitor], the Kd [2] is reported as 130 nM.

B1: 15T/15A duplex, 5'-fluorescein on 15T (dsDNA)
DNA 1: TTTTTTTTTTTTTTT
DNA 2: AAAAAAAAAAAAAAA
In the case of B1, the Kd [1] is reported as 5300 nM.
